From patent publication US4732933A, “Neocarzinostatin complexes, a method for producing the same, and an antitumor agent containing said complexes as an active component” (Kayaku Antibiotics Research Co., Ltd., priority 1982, dated 1988) come the findings set out here.

For series [1], the system named is normal fibroblasts of rabit. Put plainly: Cell toxicity to normal fibroblasts. It counts as cell-based. Set-up: key to Cell toxicity to normal fibroblasts: +: Intensity of toxicity; -: No toxicity. To be noted: for Cell toxicity to normal fibroblasts: judgement after 3 days. The text has this:
Comparison of cell toxicity
to normal fibroblasts of rabit*
*Judgement after 3 days

For a further series, the system named is cancer VX-2 of liver. Put plainly: Tumor affinity in cancer VX-2 of liver after intravenous injection. It counts as in vivo, rabit. From the text: Tumor affinity in cancer VX-2 of liver of
rabit after intravenous injection of SMANX

Series [2] can be described thus: Solubility of SMANX in various solvents compared with NCS and starting copolymer (Table 1). Format: physicochemical. To be noted: concentration: 1 mg/ml. The procedure: |(concentration: 1 mg/ml)

With `CO[C@@]12[C@H](COC(N)=O)C3=C(C(=O)C(C)=C(N)C3=O)N1C[C@@H]1N[C@@H]12` [Mitomycin C, reference compound], in series [1] (0.1 μg/ml), the “Cell toxicity to normal fibroblasts” value was “+”.

On to neocarzinostatin [NCS], for which, in the series on cancer VX-2 of liver (10 mg/kg, 90'), the “Tumor affinity, distant site (normal liver)” value (“Tumor affinity, distant site” for short) was 0 and the “Tumor affinity, interior of tumor” value was found to be 0. For the same molecule, in the series with cancer VX-2 of liver (15'), the “Tumor affinity, distant site” value amounted to 0 and the “Tumor affinity, interior of tumor” value was 0. Further, in the series on cancer VX-2 of liver (60'), the “Tumor affinity, distant site” value came out at 0 and the “Tumor affinity, interior of tumor” value was found to be 0. In series [2], the “Solubility in 10 mM aqueous solution of sodium bicarbonate” value is given as “soluble”, the “Solubility in Acetone” value is “insoluble”, the “Solubility in Dioxane” value is listed as “insoluble” and the “Solubility in Lipiodol” value is recorded as “insoluble”. Besides, in series [2], the “Solubility in Methanol” value is given as “insoluble” and the “Solubility in Pyridine” value is on record as “insoluble”. In addition, the “Solubility in Water pH 5.0” value in series [2] (pH 5.0) is given as “soluble”. Besides, the “Solubility in Water pH 8.0” value in series [2] (pH 8.0) was “soluble”. In addition, the “Cell toxicity to normal fibroblasts” value in series [1] (0.1 μg/ml) is on record as “-”. The “Cell toxicity to normal fibroblasts” value in series [1] (1.0 μg/ml) is listed as “+”. In series [1] (footnote to Table 8 (Cf.)), this molecule yielded an LD50 of 1.0 µg/mL.
